Data on one molecule can be found in paper PMC11913275, “Targeting prostate cancer by new bispecific monocyte engager directed to prostate-specific membrane antigen” (PLOS One, 2025).

In the assay the target is T1, Prostate-specific membrane antigen (Homo sapiens, UniProt Q04609).
T1 construct: also called PSMA; glutamate carboxypeptidase II; source: on PSMA-positive PC3-PIP cells
Nature of the assay: flow cytometry on cells; PSMA-positive PC3-PIP cells (PC3 as negative control) mixed with 5-fold dilution series of the construct, 20 μL, 15 min at 4°C; 5D3-CP33 detected by anti-Strep tag antibody and Alexa Fluor 647 secondary, ch5D3 by anti-human Alexa Fluor 647 secondary; KD by non-linear regression. The conditions noted are these: one partner purified.

T1 sequence (Q04609 whole entry): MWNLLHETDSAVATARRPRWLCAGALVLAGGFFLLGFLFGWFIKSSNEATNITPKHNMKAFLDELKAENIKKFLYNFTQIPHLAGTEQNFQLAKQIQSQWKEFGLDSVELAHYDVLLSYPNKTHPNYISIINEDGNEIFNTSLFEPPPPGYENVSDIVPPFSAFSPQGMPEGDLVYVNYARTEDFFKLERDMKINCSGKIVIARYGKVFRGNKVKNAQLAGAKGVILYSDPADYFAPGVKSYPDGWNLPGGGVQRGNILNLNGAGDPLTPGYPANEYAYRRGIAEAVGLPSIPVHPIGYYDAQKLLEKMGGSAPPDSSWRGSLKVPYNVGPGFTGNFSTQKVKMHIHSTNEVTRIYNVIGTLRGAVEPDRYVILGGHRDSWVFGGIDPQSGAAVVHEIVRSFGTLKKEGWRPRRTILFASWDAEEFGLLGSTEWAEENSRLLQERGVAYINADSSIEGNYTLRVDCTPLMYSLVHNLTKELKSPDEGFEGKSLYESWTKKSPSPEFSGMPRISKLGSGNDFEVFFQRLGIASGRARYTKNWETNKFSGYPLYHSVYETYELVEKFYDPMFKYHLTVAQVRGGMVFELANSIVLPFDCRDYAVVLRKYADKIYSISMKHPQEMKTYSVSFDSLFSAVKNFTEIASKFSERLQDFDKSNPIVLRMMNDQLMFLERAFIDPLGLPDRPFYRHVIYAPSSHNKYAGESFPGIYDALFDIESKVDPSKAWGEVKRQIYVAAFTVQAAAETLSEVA

B1: 5D3-CP33 bispecific monocyte engager (5D3-scFv HL fused to the N-terminus of CP33) (bispecific antibody, V domains shown)
VH: EVQLQQSGPELVKPGASVKISCKTSGYAFNTSWMNWVKQRPGQGLEWIGRIYPGDGDTNYNGKFKGKATLTADKSSSTAHMHLSSLTSVDSAVYFCARGEWYLYYFDYWGQGTTLTVSS
VL: DIQMTQTTSSLSASLGDRVTISCSASQGINNFLTWYQQKPDGTLKLLIYYTSSLHSGVPSRFSGSGSGTDYSLTIRNLEPEDIATYYCQQYSNLPFTFGGGTKVEIK
notes: VH of the anti-PSMA antibody 5D3 (scFv HL, heavy then light); linker of the 5D3 scFv HL; VL of the anti-PSMA antibody 5D3; The construct has the BiP secretion signal at its N-terminus (vector pMT/BiP/V5-HisA); About 35 kDa; also called 5D3-CP33 fusion; 5D3-scFv-CP33; not shown: SA-strep II, C-terminal, kept
B1 displayed a Kd of 3.4 nM.
